Laboratory results as given in patent publication US20240026017A1 (Kyowa Kirin, published 2024).

T1: human CC chemokine receptor 1 (human CCR1) (human, UniProt P32246 1-355)
T1 construct: endogenous on THP-1 cells in the migration assays; also called hCCR1; CHO-S-hCCR1 (expressing cells)
T1 sequence: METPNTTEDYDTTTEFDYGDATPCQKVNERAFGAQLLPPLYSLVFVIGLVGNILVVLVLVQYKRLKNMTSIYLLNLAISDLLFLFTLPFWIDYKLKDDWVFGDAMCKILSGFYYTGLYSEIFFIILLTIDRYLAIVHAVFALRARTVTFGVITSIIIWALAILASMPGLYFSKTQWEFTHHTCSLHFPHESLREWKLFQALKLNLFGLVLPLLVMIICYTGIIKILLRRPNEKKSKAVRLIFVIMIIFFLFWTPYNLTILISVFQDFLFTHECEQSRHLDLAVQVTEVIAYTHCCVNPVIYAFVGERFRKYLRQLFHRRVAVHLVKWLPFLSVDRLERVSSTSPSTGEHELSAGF

B1: chKM5908′ mut26 (antibody, V domains shown)
VH: QVQLKQSGPGLVQPSQSLSITCTVSGFSLNNYGVHWVRQPPGKGLEWLGVIWSAGTTVYNAAAISRLSISKDDSKSQVFFKMNSLQAGDTAIYYCAKDGSRYYTAMDYWGQGTSVTVSS
VL: DVVMTQTPLSLPVSLGDQASIFCRSSQSLVHRNGITFFHWYLQKPGQSPKLLIYKVSNKFSGVPDRFSGSGSGTDFTLKISRVAPDDLGVYFCSQGTHVPPTFGGGTKLEIK
B2: chKM5908′ mut27 (antibody, V domains shown)
VH: QVQLKQSGPGLVQPSQSLSITCTVSGFSLNNYGVHWVRQPPGKGLEWLGVTWSAGTTAYNAAFASRLSISKDDSKSQVFFKMNSLQAGDTAIYYCAKDGSRYYTAMDYWGQGTSVTVSS
VL: DVVMTQTPLSLPVSLGDQASIFCRSSQSLVHRNGITFFHWYLQKPGQSPKLLIYKVSNKFSGVPDRFSGSGSGTDFTLKISRVAPDDLGVYFCSQGTHVPPTFGGGTKLEIK
B3: chKM5908′ mut28 (antibody, V domains shown)
VH: QVQLKQSGPGLVQPSQSLSITCTVSGFSLNNYGVHWVRQPPGKGLEWLGVTWSAGTTVYNAAFASRLSISKDDSKSQVFFKMNSLQAGDTAIYYCAKDGSRAYAAMDYWGQGTSVTVSS
VL: DVVMTQTPLSLPVSLGDQASIFCRSSQSLVHRNGITFFHWYLQKPGQSPKLLIYKVSNKFSGVPDRFSGSGSGTDFTLKISRVAPDDLGVYFCSQGTHVPPTFGGGTKLEIK
B4: chKM5908′ mut29 (antibody, V domains shown)
VH: QVQLKQSGPGLVQPSQSLSITCTVSGFSLNNYGVHWVRQPPGKGLEWLGVTWSAGTTVYNAAFISRLSISKDDSKSQVFFKMNSLQAGDTAIYYCAKDGSRYYTAMDYWGQGTSVTVSS
VL: DVVMTQTPLSLPVSLGDQASIFCRSSQSLVHRNGITFAHWYLQKPGQSPKLLIYKISNRFSGVPDRFSGSGSGTDFTLKISRVAPDDLGVYFCSQGTHVPPTFGGGTKLEIK
B5: chKM5908′ mut30 (antibody, V domains shown)
VH: QVQLKQSGPGLVQPSQSLSITCTVSGFSLNNYGVHWVRQPPGKGLEWLGVIWSAGTTVYNAAAISRLSISKDDSKSQVFFKMNSLQAGDTAIYYCAKDGSRYYTAMDYWGQGTSVTVSS
VL: DVVMTQTPLSLPVSLGDQASIFCRSSQSLVHRNGITFAHWYLQKPGQSPKLLIYKISNRFSGVPDRFSGSGSGTDFTLKISRVAPDDLGVYFCSQGTHVPPTFGGGTKLEIK
B6: chKM5908′ mut31 (antibody, V domains shown)
VH: QVQLKQSGPGLVQPSQSLSITCTVSGFSLNNYGVHWVRQPPGKGLEWLGVTWSAGTTAYNAAFASRLSISKDDSKSQVFFKMNSLQAGDTAIYYCAKDGSRYYTAMDYWGQGTSVTVSS
VL: DVVMTQTPLSLPVSLGDQASIFCRSSQSLVHRNGITFAHWYLQKPGQSPKLLIYKISNRFSGVPDRFSGSGSGTDFTLKISRVAPDDLGVYFCSQGTHVPPTFGGGTKLEIK
B7: chKM5908′ mut32 (antibody, V domains shown)
VH: QVQLKQSGPGLVQPSQSLSITCTVSGFSLNNYGVHWVRQPPGKGLEWLGVTWSAGTTVYNAAFASRLSISKDDSKSQVFFKMNSLQAGDTAIYYCAKDGSRAYAAMDYWGQGTSVTVSS
VL: DVVMTQTPLSLPVSLGDQASIFCRSSQSLVHRNGITFAHWYLQKPGQSPKLLIYKISNRFSGVPDRFSGSGSGTDFTLKISRVAPDDLGVYFCSQGTHVPPTFGGGTKLEIK

Molecular target: T1, human CC chemokine receptor 1 (human …)
Test: flow cytometry on CHO-S-hCCR1 cells; bound = fluorescence 10 times or more that of isotype control chDNP1
Method: The antigen affinity of the chKM5908′ antibody, which is a VL-substituted chimeric antibody, was measured by flow cytometry using the CHO-S-hCCR1 cells produced in Example 2. The cells were collected by centrifugation, the supernatant was removed, and the cells were suspended in PBS (Staining Medium, hereinafter, abbreviated as SM) containing 2% fetal bovine serum (FBS), 0.05% NaN₃, and 1 mM EDTA. Next, the cells were seeded in a 96-well plate so that the number of cells is 1×10⁵ per well, and the chKM5908′ antibody was added at each final concentration of 10,000, 2,000, 400, 80, 16, and 3.2 ng/mL, and the reaction was performed at 4° C. for 60 minutes. After washing the cells with SM, Goat F (ab′)₂ Anti-Human IgG PE (γ chain specific) (Southern Biotech) diluted 500-fold with SM was added and reacted at 4° C. for 60 minutes. After washing the cells with SM, the cells were resuspended in 50 μL of SM, and the fluorescence intensity was measured by the flow cytometry (FACS Canto II, BD Biosciences).
1996 June; 33 (9):759-68, hereinafter, referred to as chDNP1)] were determined to be bound to the human CCR1.

Binding result, binds:
B1, B2, B3, B4, B5, B6, B7
